Experiment: pNA assay dose/response curves with and without various inhibitors
Format: biochemical
Settings: proteases included for comparative purposes
Experimental: pNA substrate: Suc-AAPF-pNA (Bachem L-1400) or Boc-VLGR-pNA (Bachem L-1205). Temperature: 25° C.
20 ul (microliters) protease (diluted in 0.01% Triton X-100) was placed in a well of a micro titer plate. The assay was started by adding 200 ul pNA substrate (50 mg dissolved in 1.0 ml DMSO and further diluted 100× with assay buffer). The increase in OD405 was monitored as a measure of the protease activity.
Dose/response relationships (OD405/min versus (mg enzyme)/l) were determined using the pNA assay for a number of proteases, with and without the various inhibitors. The dose-response curves were linear over a satisfactory broad range of enzyme concentrations. Varying degrees of inhibition were observed: Some proteases included for comparative purposes, viz. porcine trypsin and the SAVINASE™ protease (a subtilisin protease derived from Bacillus clausii, commercially available from Novozymes A/S, Krogshoejvej 36, DK-2880 Bagsvaerd, Denmark) were not inhibited, while other proteases were. […] It was therefore concluded that the pNA assay was indeed suitable for inhibition measurements.
Cu^2+, however, inhibited all of the proteases tested (to a varying extent, as it appears from Table 1 below).

B1: porcine trypsin: protease included for comparative purposes (protein, UniProt P00761 9-231, looked up)
Trypsin: IVGGYTCAANSIPYQVSLNSGSHFCGGSLINSQWVVSAAHCYKSRIQVRLGEHNIDVLEGNEQFINAAKIITHPNFNGNTLDNDIMLIKLSSPATLNSRVATVSLPRSCAAAGTECLISGWGNTKSSGSSYPSLLQCLKAPVLSDSSCKSSYPGQITGNMICVGFLEGGKDSCQGDSGGPVVCNGQLQGIVSWGYGCAQKNKPGVYTKVCNYVNWIQQTIAAN
  Inhibition by the various inhibitors (dose/response, pNA assay): not inhibited

— patent publication US7906310B2, “Proteases” (Novozymes A/S, priority 2003, dated 2011)
